Reference: patent publication US20200188477A1, “A MEDICAMENT FOR THE TREATMENT OF DISEASES BY BIOFILM FORMING MICROORGANISMS” (priority 2017, published 2020)

Target: M. tuberculosis PpiB overexpressed in M. smegmatis (Ms_PpiB Tet+) (Mycobacterium tuberculosis) (UniProt P9WHW1)
Assay: cell-based or functional assay

Sequence of UniProt P9WHW1 (P9WHW1 whole entry): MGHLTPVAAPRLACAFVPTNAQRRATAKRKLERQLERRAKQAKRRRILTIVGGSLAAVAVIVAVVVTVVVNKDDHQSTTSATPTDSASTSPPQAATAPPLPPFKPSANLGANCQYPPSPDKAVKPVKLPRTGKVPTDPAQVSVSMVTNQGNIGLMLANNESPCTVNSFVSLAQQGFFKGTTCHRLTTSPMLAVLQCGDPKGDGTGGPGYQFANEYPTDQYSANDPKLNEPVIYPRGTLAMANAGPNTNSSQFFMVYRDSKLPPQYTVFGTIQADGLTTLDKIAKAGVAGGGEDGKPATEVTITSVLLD

## cyclosporine A (peptide)
  biofilm formation (crystal violet assay, absorbance at 550 nm): > 100 µg/mL
